# Experimental data reported in paper PMC5853512, “Arabidopsis MKK10-MPK6 mediates red-light-regulated opening of seedling cotyledons through phosphorylation of PIF3” (Journal of Experimental Botany, 2017).
# T1: GST-PIF3 (Arabidopsis thaliana, UniProt O80536 1-524)
# T1 construct: coding region with an NdeI site before the first ATG and an XhoI site at its 3' end, NdeI/XhoI fragment cloned into pGEX4T-2; source: E. coli BL21, purified (Glutathione Sepharose 4B)
# T1 sequence (looked up): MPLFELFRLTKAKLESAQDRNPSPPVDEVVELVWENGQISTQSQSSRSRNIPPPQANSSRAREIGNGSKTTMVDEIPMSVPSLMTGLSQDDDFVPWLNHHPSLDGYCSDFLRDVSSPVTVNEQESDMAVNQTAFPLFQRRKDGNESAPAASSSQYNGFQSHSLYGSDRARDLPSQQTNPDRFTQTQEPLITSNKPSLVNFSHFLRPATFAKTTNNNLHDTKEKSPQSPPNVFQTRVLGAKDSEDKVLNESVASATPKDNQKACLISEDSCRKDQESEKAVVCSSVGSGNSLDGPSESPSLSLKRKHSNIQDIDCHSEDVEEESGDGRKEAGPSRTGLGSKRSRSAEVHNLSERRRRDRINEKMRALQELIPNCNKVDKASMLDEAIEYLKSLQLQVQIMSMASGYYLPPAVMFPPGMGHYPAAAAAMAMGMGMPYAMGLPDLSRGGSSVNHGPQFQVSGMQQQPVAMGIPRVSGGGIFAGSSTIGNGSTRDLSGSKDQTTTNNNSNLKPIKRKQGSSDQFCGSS
# B1: His-MPK6 (enzyme, Arabidopsis thaliana, UniProt Q39026 1-395, looked up)
# chain: MDGGSGQPAADTEMTEAPGGFPAAAPSPQMPGIENIPATLSHGGRFIQYNIFGNIFEVTAKYKPPIMPIGKGAYGIVCSAMNSETNESVAIKKIANAFDNKIDAKRTLREIKLLRHMDHENIVAIRDIIPPPLRNAFNDVYIAYELMDTDLHQIIRSNQALSEEHCQYFLYQILRGLKYIHSANVLHRDLKPSNLLLNANCDLKICDFGLARVTSESDFMTEYVVTRWYRAPELLLNSSDYTAAIDVWSVGCIFMELMDRKPLFPGRDHVHQLRLLMELIGTPSEEELEFLNENAKRYIRQLPPYPRQSITDKFPTVHPLAIDLIEKMLTFDPRRRITVLDALAHPYLNSLHDISDEPECTIPFNFDFENHALSEEQMKELIYREALAFNPEYQQ
# notes: coding region amplified from seedling cDNA with an NdeI site before the first ATG, NdeI/SalI fragment cloned into pET28a(+); The NdeI site of pET28a(+) would put the His tag at the N-terminus (surmised); source: E. coli BL21, purified (Ni2+-chelating Sepharose Fast Flow)
# Target: T1, GST-PIF3
# Assay: pull-down; GST or GST-PIF3 bound to Glutathione Sepharose 4B beads, incubated with His-MPK6 in 50 mM Tris-HCl pH 7.5, 100 mM NaCl, 0.02% Triton X-100 at 4 °C for 2 h; immunoblot with anti-GST and anti-His
# Conditions: both partners purified
binder,measurement,value
B1,binding result,binds
